According to patent publication US20250320465A1 (FLAGSHIP PIONEERING INNOVATIONS V, published 2025):

Target: the molecule itself
Assay: structure of the VLP (self-assembly)

B1: Ring10-ORF1delCterm Helix (Ring10 ORF1 with a deletion of the C-terminus amino acids 610-672) VLP from Expi293 cells (other)
chain: MPWWYRRRSYNPWRRRNWFRRPRKTIYRRYRRRRRWVRRKPFYKRKIKRLNIVEWQPKSIRKCRIKGMLCLFQTTEDRLSYNFDMYEESIIPEKLPGGGGFSIKNISLYALYQEHIHAHNIFTHTNTDRPLARYTGCSLKFYQSKDIDYVVTYSTSLPLRSSMGMYNSMQPSIHLMQQNKLIVPSKQTQKRRKPYIKKHISPPTQMKSQWYFQHNIANIPLLMIRTTALTLDNYYIGSRQLSTNVTIHTLNTTYIQNRDWGDRNKTYYCQTLGTQRYFLYGTHSTAQNINDIKLQELIPLTNTQDYVQGFDWTEKDKHNITTYKEFLTKGAGNPFHAEWITAQNPVIHTANSPTQIEQIYTASTTTFQNKKLTDLPTPGYIFITPTVSLRYNPYKDLAERNKCYFVRSKINAHGWDPEQHQELINSDLPQWLLLFGYPDYIKRTQNFALVDTNYILVDHCPYTNPEKTPFIPLSTSFIEGRSPYSPSDTHEPDEEDQNRWYPCYQYQQESINSICLSGPGTPKIPKGITAEAKVKYSFNFKWGGDLPPMSTITNPTDQPTYVVPNNFNETTSLQNPTTRPEHFLYSFDERRGQLTEKATKRLLKDWETK
notes: also called Ring10-ORF1 delCterm-Helix (Δ610-672) (7052)
Question: Does B1 bind?
Answer: Result: binds
